T1: His-tagged recombinant human glycyl-tRNA synthetase (GRS), 685 amino acids (human, UniProt P41250 55-739)
T1 construct: Expressed in E. coli; also called His-GRS; his-tagged GRS; not shown: His tag from vector pET-28a (EcoRI/XhoI)
T1 sequence: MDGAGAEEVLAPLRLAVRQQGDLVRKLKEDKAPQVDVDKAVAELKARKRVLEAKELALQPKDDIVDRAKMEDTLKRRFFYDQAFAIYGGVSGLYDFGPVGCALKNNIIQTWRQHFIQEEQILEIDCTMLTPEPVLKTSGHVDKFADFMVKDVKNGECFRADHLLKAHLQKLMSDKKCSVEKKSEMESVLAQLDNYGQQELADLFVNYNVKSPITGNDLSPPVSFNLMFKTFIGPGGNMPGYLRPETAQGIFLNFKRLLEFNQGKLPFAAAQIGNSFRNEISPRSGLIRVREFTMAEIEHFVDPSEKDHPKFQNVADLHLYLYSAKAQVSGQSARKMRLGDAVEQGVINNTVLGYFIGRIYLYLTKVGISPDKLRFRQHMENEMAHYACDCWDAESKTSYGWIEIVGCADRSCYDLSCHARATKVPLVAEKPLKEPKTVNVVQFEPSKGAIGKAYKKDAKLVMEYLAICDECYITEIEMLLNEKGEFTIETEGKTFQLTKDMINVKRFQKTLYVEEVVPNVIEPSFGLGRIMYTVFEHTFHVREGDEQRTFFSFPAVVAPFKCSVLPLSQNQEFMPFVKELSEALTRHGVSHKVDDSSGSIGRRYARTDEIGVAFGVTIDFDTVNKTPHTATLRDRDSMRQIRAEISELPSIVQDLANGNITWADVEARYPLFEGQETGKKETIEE


Assays:
[1] = target: Fc-fused soluble cadherin-18 (extracellular domain of CDH18 fused to the Fc fragment of human IgG1) (human) (UniProt Q13634); test: SPR (ProteOn XPR36), Fc-cadherin amine-coupled to GLC chip, GRS as analyte, Langmuir 1:1 model
[2] = target: T1, His-tagged recombinant human …; test: ELISA: plate coated with His-GRS or BSA, Fc-fused cadherin added, detected with anti-human IgG1 Fc-HRP; axis OD 490nm
Protocol: (A) A panel of Fc-fused soluble cadherin family proteins was bound to His-tagged GRS or to BSA-coated plates, and complexes were detected with the IgG1 Fc-HRP (Thermo) reagent. (B) To confirm the binding between cadherins and GRS, Fc-CDH2, 6 and 18 were incubated with His-GRS. Fc-CDHs were precipitated with protein A/G agarose and co-precipitated GRS was determined by immunoblotting. (C) To calculate the equilibrium dissociation constant (IQ), immobilized Fc-fused (to gold chips) cadherins were incubated with GRS (31.25 nM˜1 uM). Binding of GRS to CDH6 was determined by surface plasmon resonance and expressed as resonance units (RU). (D) To confirm the binding between CDH6 and GRS domain peptides, Fc-CDH6 was incubated with different domains (F1, 2, 3 and 4) of GRS that were expressed as the GST fusion proteins. GST-GRS proteins were precipitated with GSH-sepharose beads and co-precipitated CDH6 was determined by immunoblotting. (E) Five difference cancers cells were determined for the expression of CDH6 by immunoblotting. (F) HCT116 cells were transfected with non-specific siRNA controls (si-con) or two differently designed siRNAs targeting CDH6 (#1 and #2), treated with biotinylated GRS (15 nM), and the binding of GRS was analyzed by immunoblotting. (G) HCT116 cells were transfected with si-con and si-CDH6 as described above, and cell binding of GRS was measured by FACS analysis. (H) HCT116 cells were incubated with His-GRS (150 nM). To neutralize the effects of GRS, Fc-fused CDH6 (300 nM) was added and the cell viability was determined by the MTT assay. Error bars represent standard deviation. (I) The binding between CDH6 and GRS domain peptides was again confirmed by ELISA assay.
To identifying the receptor of GRS, a Maxisorp plate (Nunc, Rochester, N.Y.) was used for an ELISA detection. The plate were coated with purified his-tagged GRS (1 ug/ml) or BSA (1 ug/ml) in phosphate buffer saline and then blocked (PBS, 4% non-fat milk). Fc-fusion cadherin family proteins (1 ug/ml) were added to the plate and after washing with PBST (0.05% Tween20), the plates were incubated with anti-human IgG1 Fc-HRP (Thermo, Waltham, Mass.). […]

[3] = target: T1, His-tagged recombinant human …; test: SPR (ProteOn XPR36), Fc-cadherin amine-coupled to GLC chip, GRS as analyte, Langmuir 1:1 model
Protocol: Binding of GRS to CDH6 was determined by surface plasmon resonance and expressed as resonance units (RU). (D) To confirm the binding between CDH6 and GRS domain peptides, Fc-CDH6 was incubated with different domains (F1, 2, 3 and 4) of GRS that were expressed as the GST fusion proteins. GST-GRS proteins were precipitated with GSH-sepharose beads and co-precipitated CDH6 was determined by immunoblotting. (E) Five difference cancers cells were determined for the expression of CDH6 by immunoblotting. (F) HCT116 cells were transfected with non-specific siRNA controls (si-con) or two differently designed siRNAs targeting CDH6 (#1 and #2), treated with biotinylated GRS (15 nM), and the binding of GRS was analyzed by immunoblotting. (G) HCT116 cells were transfected with si-con and si-CDH6 as described above, and cell binding of GRS was measured by FACS analysis. […] To neutralize the effects of GRS, Fc-fused CDH6 (300 nM) was added and the cell viability was determined by the MTT assay. […]
Binding of GRS to the cadherin-Fc fusion proteins was determined by the SPR technique using a ProteOn XPR36 Protein Interaction Array System (BioRad). […] The binding was determined by the change in resonance units (RU), where one resonance unit is defined as 1 pg/mm². The Sensogram was processed by subtracting the binding response recorded from the control surface. […]

Row | Molecule | binding result [2] | further results
1 | His-tagged recombinant human glycyl-tRNA synthetase (GRS), 685 amino acids (from UniProt P41250 55-739) (enzyme) |  | Kd [1]: 1.25 nM
2 | CDH13 (Fc fusion, not shown: a dimerising Fc or GST; small tags and cut ends, one of the remaining CDHs (group m5); also called Fc-CDH13; Fc-fused soluble cadherin-13) SIVVSPILIPENQRQPFPRDVGKVVDSDRPERSKFRLTGKGVDQEPKGIFRINENTGSVSVTRTLDREVIAVYQLFVETTDVNGKTLEGPVPLEVIVIDQNDNRPIFREGPYIGHVMEGSPTGTTVMRMTAFDADDPATDNALLRYNIRQQTPDKPSPNMFYIDPEKGDIVTVVSPALLDRETLENPKYELIIEAQDMAGLDVGLTGTATATIMIDDKNDHSPKFTKKEFQATVEEGAVGVIVNLTVEDKDDPTTGAWRAAYTIINGNPGQSFEIHTNPQTNEGMLSVVKPLDYEISAFHTLLIKVENEDPLVPDVSYGPSSTATVHITVLDVNEGPVFYPDPMMVTRQEDLSVGSVLLTVNATDPDSLQHQTIRYSVYKDPAGWLNINPINGTVDTTAVLDRESPFVDNSVYTALFLAIDSGNPPATGTGTLLITLEDVNDNAPFIYPTVAEVCDDAKNLSVVILGASDKDLHPNTDPFKFEIHKQAVPDKVWKISKINNTHALVSLLQNLNKANYNLPIMVTDSGKPPMTNITDLRVQVCSCRNSKVDCNAAG | no binding (tested: 1 ug/ml (single concentration)) | 
3 | CDH20 (Fc fusion, not shown: a dimerising Fc or GST; small tags and cut ends, one of the remaining CDHs (group m5); also called Fc-CDH20; Fc-fused soluble cadherin-20) SWVWNQFFVLEEYTGTDPLYVGKLHSDMDRGDGSIKYILSGEGAGIVFTIDDTTGDIHAIQRLDREERAQYTLRAQALDRRTGRPMEPESEFIIKIQDINDNEPKFLDGPYVATVPEMSPVGTSVIQVTATDADDPTYGNSARVVYSILQGQPYFSVDSKTGVIRTALMNMDREAKEYYEVIIQAKDMGGQLGGLAGTTTVNITLSDVNDNPPRFPQKHYQMSVLESAPISSTVGRVFAKDLDEGINAEMKYTIVDGDGADAFDISTDPNFQVGIITVKKPLSFESKKSYTLKVEGANPHLEMRFLNLGPFQDTTTVHISVEDVDEPPVFEPGFYFVEVPEDVAIGTTIQIISAKDPDVTNNSIRYSIDRSSDPGRFFYVDITTGALMTARPLDREEFSWHNITVLAMEMNNPSQVGSVPVTIKVLDVNDNAPEFPRFYEAFVCENAKAGQLIQTVSAVDQDDPRNGQHFYYSLAPEAANNPNFTIRDNQDNTARILTRRSGFRQQEQSVFHLPILIADSGQPVLSSTGTLTIQVCSCDDDGHVMSCSPEAYMLPVSLSR | no binding (tested: 1 ug/ml (single concentration)) | 
4 | CDH16 (Fc fusion, not shown: a dimerising Fc or GST; small tags and cut ends, one of the remaining CDHs (group m5); also called Fc-CDH16; Fc-fused soluble cadherin-16) KAQPAELSVEVPENYGGNFPLYLTKLPLPREGAEGQIVLSGDSGKATEGPFAMDPDSGFLLVTRALDREEQAEYQLQVTLEMQDGHVLWGPQPVLVHVKDENDQVPHFSQAIYRARLSRGTRPGIPFLFLEASDRDEPGTANSDLRFHILSQAPAQPSPDMFQLEPRLGALALSPKGSTSLDHALERTYQLLVQVKDMGDQASGHQATATVEVSIIESTWVSLEPIHLAENLKVLYPHHMAQVHWSGGDVHYHLESHPPGPFEVNAEGNLYVTRELDREAQAEYLLQVRAQNSHGEDYAAPLELHVLVMDENDNVPICPPRDPTVSIPELSPPGTEVTRLSAEDADAPGSPNSHVVYQLLSPEPEDGVEGRAFQVDPTSGSVTLGVLPLRAGQNILLLVLAMDLAGAEGGFSSTCEVEVAVTDINDHAPEFITSQIGPISLPEDVEPGTLVAMLTAIDADLEPAFRLMDFAIERGDTEGTFGLDWEPDSGHVRLRLCKNLSYEAAPSHEVVVVVQSVAKLVGPGPGPGATATVTVLVERVMPPPKLDQESYEASVPISAPAGSFLLTIQPSDPISRTLRFSLVNDSEGWLCIEKFSGEVHTAQSLQGAQPGDTYTVLVEAQDTDEPRLSASAPLVIHFLKAPPAPALTLAPVPSQYLCTPRQDHGLIVSGPSKDPDLASGHGPYSFTLGPNPTVQRDWRLQTLNGSHAYLTLALHWVEPREHIIPVVVSHNAQMWQLLVRVIVCRCNVEGQCMRKVGRMKGMPTKLSA | no binding (tested: 1 ug/ml (single concentration)) | 
5 | Fc-fused soluble cadherin-2 (extracellular domain of CDH2 fused to the Fc fragment of human IgG1) (Fc fusion, UniProt P19022 160-724, looked up, extracellular domain; also called Fc-CDH2; not shown: Fc fragment of human IgG1) DWVIPPINLPENSRGPFPQELVRIRSDRDKNLSLRYSVTGPGADQPPTGIFIINPISGQLSVTKPLDREQIARFHLRAHAVDINGNQVENPIDIVINVIDMNDNRPEFLHQVWNGTVPEGSKPGTYVMTVTAIDADDPNALNGMLRYRIVSQAPSTPSPNMFTINNETGDIITVAAGLDREKVQQYTLIIQATDMEGNPTYGLSNTATAVITVTDVNDNPPEFTAMTFYGEVPENRVDIIVANLTVTDKDQPHTPAWNAVYRISGGDPTGRFAIQTDPNSNDGLVTVVKPIDFETNRMFVLTVAAENQVPLAKGIQHPPQSTATVSVTVIDVNENPYFAPNPKIIRQEEGLHAGTMLTTFTAQDPDRYMQQNIRYTKLSDPANWLKIDPVNGQITTIAVLDRESPNVKNNIYNATFLASDNGIPPMSGTGTLQIYLLDINDNAPQVLPQEAETCETPDPNSINITALDYDIDPNAGPFAFDLPLSPVTIKRNWTITRLNGDFAQLNLKIKFLEAGIYEVPIIITDSGNPPKSNISILRVKVCQCDSNGDCTDVDRIVGAGLGTGA | no binding (tested: 1 ug/ml (single concentration)) | 
6 | Fc-fused soluble cadherin-6 (extracellular domain of CDH6 fused to the Fc fragment of human IgG1) (Fc fusion, also called Fc-CDH6; Fc-fused CDH6; not shown: Fc fragment of human IgG1) SWMWNQFFLLEEYTGSDYQYVGKLHSDQDRGDGSLKYILSGDGAGDLFIINENTGDIQATKRLDREEKPVYILRAQAINRRTGRPVEPESEFIIKIHDINDNEPIFTKEVYTATVPEMSDVGTFVVQVTATDADDPTYGNSAKVVYSILQGQPYFSVESETGIIKTALLNMDRENREQYQVVIQAKDMGGQMGGLSGTTTVNITLTDVNDNPPRFPQSTYQFKTPESSPPGTPIGRIKASDADVGENAEIEYSITDGEGLDMFDVITDQETQEGIITVKKLLDFEKKKVYTLKVEASNPYVEPRFLYLGPFKDSATVRIVVEDVDEPPVFSKLAYILQIREDAQINTTIGSVTAQDPDAARNPVKYSVDRHTDMDRIFNIDSGNGSIFTSKLLDRETLLWHNITVIATEINNPKQSSRVPLYIKVLDVNDNAPEFAEFYETFVCEKAKADQLIQTLHAVDKDDPYSGHQFSFSLAPEAASGSNFTIQDNKDNTAGILTRKNGYNRHEMSTYLLPVVISDNDYPVQSSTGTVTVRVCACDHHGNMQSCHAEALIHPTGLSTGA |  | Kd [3]: 3.4 nM
